The results in this text go back to patent EP0636174B1, “HYALURONAN RECEPTOR (RHAMM = RECEPTOR FOR HYLURONAN MEDIATED MOBILITY) AND HYALURONAN BINDING PEPTIDES” (UNIVERSITY OF MANITOBA, priority 1992, dated 1993).

The target in one assay is T1, GST-RHAMM fusion protein (Mus musculus, UniProt Q00547).
T1 construct: A complete RHAMM cDNA (1.43 kb) was expressed as a fusion protein with pGEX-2T in E. coli HB101; made in house; host or cells: E. coli HB101 (pGEX-2T)
T1 sequence (Q00547 319-794): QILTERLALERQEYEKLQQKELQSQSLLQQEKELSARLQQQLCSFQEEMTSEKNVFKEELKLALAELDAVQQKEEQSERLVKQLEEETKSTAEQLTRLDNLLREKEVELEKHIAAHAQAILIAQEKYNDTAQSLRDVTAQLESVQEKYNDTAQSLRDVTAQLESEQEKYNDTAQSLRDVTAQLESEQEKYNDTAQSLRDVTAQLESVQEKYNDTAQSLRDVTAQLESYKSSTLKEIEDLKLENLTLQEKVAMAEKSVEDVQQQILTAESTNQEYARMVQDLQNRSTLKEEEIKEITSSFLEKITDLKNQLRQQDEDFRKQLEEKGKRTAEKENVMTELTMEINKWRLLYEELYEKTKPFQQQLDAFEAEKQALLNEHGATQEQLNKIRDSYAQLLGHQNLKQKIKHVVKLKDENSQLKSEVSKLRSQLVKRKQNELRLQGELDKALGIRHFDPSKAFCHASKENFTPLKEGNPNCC
As to the kind of experiment: Competition by peptides with binding of biotin-labelled HA to transblotted GST-RHAMM fusion protein. Conditions: biotin-labelled HA pre-incubated for 1 h with 3 mg/ml peptide; Figure 13A. The method, then:
Transblotted RHAMM fusion protein was stained with a 1:10,000 dilution of biotin-labelled HA that had been pre-incubated for 1 h with 3 mg/ml BSA (Figure 13A, lane 1) , 3 mg/ml peptide^aa401-411 (lane 2) or 3 mg/ml peptide^aa423-432 (lane 3).
GST-RHAMM fusion protein was electrophoresed on 10% SDS-PAGE and transblotted onto a nitrocellulose membrane. The membrane was cut into 3 strips and each was stained with 1:3000 diluted biotin-labelled HA in the presence of 3 mg/ml BSA, 3 mg/ml peptide^aa401-411 and 3 mg/ml peptide^aa423-432, respectively. The other steps were the same as described in immunoblots.

A short description of assay [1]: Hyaluronan-Sepharose affinity chromatography of peptides. Format: binding. The conditions noted are these: 0.15 M NaCl in PBS; Figure 13B. The method, then:
To further test the inventor's HA-binding motif model, a number of synthetic peptides were prepared and their HA-binding ability was determined using HA-sepharose. A tyrosine residue was added to one end of each synthetic peptide for convenient spectrophotometric quantitation.
HA-Sepharose affinity gel was prepared according to the manufacturer's instruction. […]
Hyaluronan (Sigma) was coupled to AH-Sepharose 4B (Pharmacia) according to the manufacturer's instructions, resulting in an HA-Sepharose gel. Peptides, ordered from Coast Scientific (San Diego) were HPLC purified. These and randomized peptides, whose sequence was generated by computer, were applied to HA-Sepharose in the presence of 0.15 M NaCl in PBS buffer. Unbound peptides were removed by extensive washing with the same buffer. The amounts of peptides applied and that removed were determined by measuring optical density (O.D.) at 214 nm.

Turning to “K^423L R S Q L V K R K^432 (KLKSQLVKRK) [peptide^aa423-432]”, the “blocking of the binding of biotin-labelled HA to expressed GST-RHAMM fusion protein” value with GST-RHAMM fusion protein is reported as “blocked”. In addition, in assay [1], the “binding to HA-Sepharose” value is recorded as “efficiently bound”.
